Laboratory results reported in PMC10675840, “Structure-function analysis of ceTIR-1/hSARM1 explains the lack of Wallerian axonal degeneration in C. elegans” (Cell reports, 2023).

B1: ceTIR-1^TIR (residues 703-872) [C. elegans] / itself (parent)
chain: MLSKQIDVFISYRRSTGNQLASLIKVLLQLRGYRVFIDVDKLYAGKFDSSLLKNIQAAKHFILVLTPNSLDRLLNDDNCEDWVHKELKCAFEHQKNIIPIFDTAFEFPTKEDQIPNDIRMITKYNGVKWVHDYQDACMAKVVRFITGELNRTTPTTKEMPSISRKTTQQR

Variants of: B1
Test: gel filtration (size exclusion chromatography)
Conditions: with itself

elution volume [mL] | Variant
17.2 | chain 1 L27H
